Assay results from patent US8852569B2, “Prevention and treatment of itch with cysteine protease inhibition” (The General Hospital Corporation, priority 2008, dated 2014).

Key:
[1] = Chromogenic substrate assay, protease activity of the purified recombinant cathepsins; assay type: biochemical; details: FIG. 1; protease 0.84 μM
Procedure: The concentrations of all the three proteases are at 0.84 μM and that of E64, a non-selective irreversible inhibitor of cysteine proteases, is at 2 μM […].
Papain served as a positive control cysteine protease. The cathepsin S and K were further evaluated for their capacity to activate PAR receptors as noted below.

human volunteers = test: Itch evoked by inactivated cowhage spicules reconstituted with cathepsin S, inserted into skin; assay type: in vivo
Procedure: Recombinant cathepsin S also evokes itch in human volunteers. In this experiment, native itch-evoking spicules from the plant Mucuna pruriens were inactivated by autoclaving for 1 hour and reconstituted with recombinant cathepsin S. Typically, 50 mg of inactivated spicules were mixed with 0.4 ml of 1 mg of recombinant cathepsin S in 0.1M NaCl with 0.01 M L-cysteine in a 2 ml microfuge tube, vortexed, dried in a Speed-vac for 2 hours at room temperature, vortexed again and transferred to a new tube. This second vortex step allowed for precipitated salt to be separated from the spicules. These spicules were then considered ‘reconstituted’ with the cathepsin S. Individual spicules were then superficially inserted approximately 0.2 mm into the skin of volunteers who rated the subsequent itch as “very strong”. The mean perceived intensity of itch and nociceptive sensation evoked by a single inactivated spicule reconstituted with cathepsin S on nine human volunteers is shown in FIG. 3A. The mean perceived intensity is similar with that for itch and nociceptive sensation evoked by a single spicule of native cowhage for the same nine volunteers.

PAR1 = test: PAR activation by cytoplasmic calcium release in transfected HeLa cells (Fura-2 ratiometric imaging), PAR1; assay type: cell-based, human; details: HeLa cells transfected with PAR1
Procedure: (§1) The responses to PAR 2 and 4 were blocked by the protease inhibitor E64 (10 μM) as a control). Other controls included vector alone and vector encoding the PAR1 receptor. Cathepsin S was added as indicated. The averages from at least three separate experiments were then combined +/−SD.
(§2) PAR activation observed by cytoplasmic calcium release—The four human PAR cDNAs were obtained from commercial sources and cloned into the pcDNA3.1(−) vector (INVITROGEN™ Inc.). HeLa cells were transfected with 10 μg of vector cDNA using Lipofectamine 2000 (INVITROGEN™ Inc.) and cultured for two days in 96-well glass bottom plates at 30,000 cells/well. Cells were loaded with Fura-2 as follows. The medium was aspirated and replaced with 100 μl of complete DMEM containing 2 μM Fura-2 (INVITROGEN™ Inc.) and kept at room temperature in the dark for 1 hr. The medium was again aspirated and each well received 90 μl of HEPES buffered saline (20 mM HEPES, 115 mM NaCl, 5.4 mM KCl, 2 mM CaCl2, 0.8 mM MgCl2, 13.8 mM glucose, pH 7.4). Plates were observed using a Zeiss Axiovert 200M microscope equipped with a filter wheel for monitoring excitation at 340 and 380 nm. Axiovision software, version 4.6 was used to analyze ratiometric calcium imaging of the cells. Ten μl of a 21 μM solution of recombinant human cathepsin S were applied approximately 20 seconds after the start of excitation. […]

PAR2 = test: PAR activation by cytoplasmic calcium release in transfected HeLa cells (Fura-2 ratiometric imaging), PAR2; assay type: cell-based, human
Procedure: as §1
(§3) Salmon sperm (SS) DNA is used as control. The averages from at least three separate experiments were then combined +/−SD.
as §2, with “cells.” for “cells. Ten μl of a 21 μM solution of recombinant human cathepsin S were applied approximately 20 seconds after the start of excitation.”

PAR4 = test: PAR activation by cytoplasmic calcium release in transfected HeLa cells (Fura-2 ratiometric imaging), PAR4; assay type: cell-based, human
Procedure: as §1, §3
as §2, with “cells.” for “cells. Ten μl of a 21 μM solution of recombinant human cathepsin S were applied approximately 20 seconds after the start of excitation.”

[2] = cathepsin S 30 nM versus mucunain

B1: cathepsin K: recombinant human cysteine protease, expressed in E. coli as zymogen and cleaved to active enzyme (protein)
chain: APDSVDYRKKGYVTPVKNQGQCGSCWAFSSVGALEGQLKKKTGKLLNLSPQNLVDCVSENDGCGGGYMTNAFQYVQKNRGIDSEDAYPYVGQEESCMYNPTGKAAKCRGYREIPEGNEKALKRAVARVGPVSVAIDASLTSFQFYSKGVYYDESCNSDNLNHAVLAVGYGIQKGNKHWIIKNSWGENWGNKGYILMARNKNNACGIANLASFPKM
For B1, which “capacity to cleave the chromogenic substrate Z-Phe-Arg-pNA” value [1] is on record?
Its value is “had protease activity”.

B2: cathepsin S: recombinant human cysteine protease, expressed in E. coli as zymogen and cleaved to active enzyme (protein)
chain: LPDSVDWREKGCVTEVKYQGSCGACWAFSAVGALEAQLKLKTGKLVSLSAQNLVDCSTEKYGNKGCNGGFMTTAFQYIIDNKGIDSDASYPYKAMDQKCQYDSKYRAATCSKYTELPYGREDVLKEAVANKGPVSVGVDARHPSFFLYRSGVYYEPSCTQNVNHGVLVVGYGDLNGKEYWLVKNSWGHNFGEEGYIRMARNKGNHCGIASFPSYPEI
Which results are given for B2?
mean perceived intensity of itch and nociceptive sensation compared with a single spicule of native cowhage (human volunteers; nine human volunteers, FIG. 3A versus 3B): similar; itch rating by volunteers (human volunteers; single reconstituted spicule inserted approximately 0.2 mm into skin): very strong; activation of PAR1 (calcium flux) (PAR1): no activation; concentration at which strong activation of PAR2 occurred (calcium flux) (PAR2; HeLa cells transfected with PAR2): 30 nM; activating concentration relative to that needed for stimulation via mucunain, PAR2 (PAR2; [2]): at least ten-fold less; concentration at which strong activation of PAR4 occurred (calcium flux) (PAR4; HeLa cells transfected with PAR4): 30 nM; activating concentration relative to that needed for stimulation via mucunain, PAR4 (PAR4; [2]): at least ten-fold less; capacity to cleave the chromogenic substrate Z-Phe-Arg-pNA [1]: had protease activity
